Target: human recombinant SNAP25 (Synaptosomal Associated Protein 25) (human), P60880
Assay: SPR

Chain of human recombinant SNAP25 (Synaptosomal Associated Protein 25) (human), P60880 (P60880 whole entry): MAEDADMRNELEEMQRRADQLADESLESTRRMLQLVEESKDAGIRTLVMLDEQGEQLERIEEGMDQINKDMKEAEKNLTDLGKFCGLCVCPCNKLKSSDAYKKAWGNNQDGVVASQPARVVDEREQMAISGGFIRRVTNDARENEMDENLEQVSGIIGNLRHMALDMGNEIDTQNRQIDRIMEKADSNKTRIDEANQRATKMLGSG

B1: Bovine Type VI Collagen (complex)
chain 1: not shown
chain 2: QQQEVISPGPSDRNSCPEKADCPVHVYFVLDTSESITMQSPTDSLLYHMQQFVLQFISQLQDELYLDQVALSWRYGGLHFSDLVEVFSPPGSDRASFTKSLQSISSFRRGTFTDCMLANMTQEVRRHVGKGVVNFAVVITDGHVTGSPCGGIKLQAERAREEGIRLFAVPPNLKLNEQGLRDIANTPHELYRNNYATMRPDSTEIDQDTINRIIKVMKHEAYGECYKVSCLEIPGPPGPKGYRGQKGAKGNMGEPGEPGQKGRQGDPGIEGPIGFPGPKGVPGFKGEKGEFGADGRKGAPGLAGKNGTDGQKGKLGRIGPPGCKGDTGDRGPDGYVGEAGSPGERGDQGSKGDPGRPGRRGPPGENGAKGSKGYQGNNGAPGSPGLKGAKGGPGPRGPKGEPGRRGDPGTKGGPGSDGPKGEKGDPGPEGPRGLAGEVGNKGAKANRGLPGPRGPQGTVGEPGKQGSRGDPGDAGPRGDSGQPGPKGDPGRPGFSYPGPRGAPGDKGEPGPPGPEGGRGDFGSKGEPGRKGQKGEPADPGPPGEPGPRGQRGAPGPEGEPGPPGDPGLTECDVMTYVRETCGCCDCEKRCGALDVVFVIDSSESIGYTNFTLEKNFVINVVNRLGAIAKDPKSETGTRVGVVQYSHEGTFEAIQLDDERIDSLSSFKEAVKNLEWIAGGTWTPSALKFAYNKLIKESRRQKTRVFAVVITDGRHDPRDDDLNLRALCNHEVTVTAIGIGDMFHEKHESENLYSIACDKPQQVRNMTLFSDLVAEKFIDDMEDVLCPDPQIVCPDLPCQTELYVAQCTQRPVDIVFLLDGSERLGEQNFHKVRRFVEEVSRRLTLARKDDDPLNARVALLQFGGPREQQVAFPLTSNLTVIQEALASARYLNSFSHVGTGIVQAINQVVQGARAGARRHAELSFVFLTDGVTGNDSLDEAVHSMRKQNVVPTVVAVGSDVDTDVLSKISLGDPAAVFREKDYDSLAQPGFFDRFIRWIC
chain 3: not shown
- Kd: 15 nM

From paper PMC11429891
